In test [1] the target is T1, hHER3-his (human, UniProt P21860 20-643).
T1 construct: Bought reagent; also called Her3-his (cat10201-H08H, SinoBiological); not shown: his tag
Nature of the test: SPR (BIAcore 8K), mAb captured by anti-human Fc, Her3-his as analyte, 1:1 Langmuir fit, 25 C. The protocol:
Binding kinetics of the mAbs to the target was determined by SPR on a BIAcore 8K (GE Healthcare). The running buffer, 10 mM HEPES, 150 mM NaCl, 0.05% v/v Surfactant P20, 3 mM EDTA, pH 7.4 (HBS-EP+, GE Healthcare) was used for immobilization and reagent dilutions. All binding kinetics were measured at 25° C. For each injection cycle, mAbs were first captured in different flow cells with an anti-human Fc antibody (Human Antibody Capture Kit, GE Healthcare) immobilized to the sensor chip (Series S CM5, GE Healthcare). Reference flow cell with no captured mAb was also used. Serial dilutions of Her3-his(cat10201-H08H, SinoBiological), and buffer blanks were injected in multiple cycles over the captured mAbs and reference surfaces for association followed by dissociation. The surfaces were regenerated with an injection of 3 M MgCl2 after each cycle. Double-referenced titration data was globally fit to a 1:1 Langmuir binding model to determine the association rate constant, ka (M−1 s−1), and the dissociation rate constant, kd (s−1), using the BIAcore Insight Evaluation Software version 2.0 (GE Healthcare). The equilibrium dissociation constant was calculated as KD(M)=kd/ka.
On the technique in general: In SPR one partner is held on a chip, and binding of the other changes the refractive index at the surface.

Test [2] concerns the target T2, human HER3 (native, on A375 cells) (human, UniProt P21860 20-1342).
T2 construct: whole, on cells; also called native Her3; human native Her3
Nature of the test: flow cytometry (FACS) on A375 cells, anti-human IgG Alexa Fluor 647 detection, 4-parameter fit. The procedure:
Cell fluorescence was quantified using a flow cytometer (Guava easyCyte 8HT, Merck-Millipore, USA). EC50 values for dose-dependent binding to human native Her3 were determined by fitting the dose-response data to the four-parameter logistic model with GraphPad Prism.

From patent US20250295798A1 (BEIGENE SWITZERLAND, published 2025) come the findings set out here.

B1: Patritumab (antibody, V domains shown)
VH: QVQLQQWGAGLLKPSETLSLTCAVYGGSFSGYYWSWIRQPPGKGLEWIGEINHSGSTNYNPSLKSRVTISVETSKNQFSLKLSSVTAADTAVYYCARDKWTWYFDLWGRGTLVTVSS
VL: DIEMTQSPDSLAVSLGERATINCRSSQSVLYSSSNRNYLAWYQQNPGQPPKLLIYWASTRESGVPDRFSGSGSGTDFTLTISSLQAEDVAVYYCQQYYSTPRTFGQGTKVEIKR
In test [1], B1 gave a dissociation constant (Kd) of 1.51 nM. This molecule displayed an EC50 in test [2] of 0.59 nM.

B2: mAb10 (antibody, V domains shown)
VH: EVQLLESGGGLVQPGGSLRLSCAVSGGSFSGYYWSWIRQAPGKGLEWIGEINHSGSTNYNPSLKSRFTISVDNSKNTFYLQMNSLRAEDTAVYYCARDKWTWYFDLWGRGTLVTVSS
VL: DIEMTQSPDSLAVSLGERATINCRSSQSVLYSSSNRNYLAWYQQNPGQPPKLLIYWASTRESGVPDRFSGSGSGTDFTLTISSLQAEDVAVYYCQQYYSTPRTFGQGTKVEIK
notes: Produced from heavy chain and kappa chain plasmids in CHO cells
Consider B2, for which the Kd in test [1] is 2.52 nM. In addition, in test [2], the EC50 turned out to be 0.83 nM.

The term Kd denotes the constant that tells how readily two partners part at equilibrium. High values mean lower affinity, low ones higher affinity. In general, EC50 refers to the concentration giving half of the maximal effect.
